Entries after “also recorded” stand apart in the source; their conditions may differ.
What was measured:
c-Src tyrosine kinase = target: T1, c-Src tyrosine kinase (Mus musculus, UniProt P05480, P80A); assay: tyrosine phosphorylation on co-expression with c-Src in insect cells, western blotting with phosphorylated tyrosine specific antibody; type: cell-based, Spodoptera frugiperda; conditions: glutathione bead purified, FIG. 2, FIG. 4
T1 construct: Full length human c-Src gene was per amplified from the vector of pUSE human O-Src wild (Upstate Biotechnology); host or cells: sf9 insect cells co-infected with two recombinant baculoviruses
Description: The results shown in FIG. 4 were obtained by co-expressing a fused protein GST-DDR2 CKD, a fused protein (GST-DDR1b CKD) of the GST and the human DDR1b cytosolic tyrosine kinase domain, a fused protein (GST-Akt1) of the GST and the full-length mouse Akt1 kinase and a fused protein (GST-CDK4) of the GST and the full-length human CDK4 kinase with the c-Src protein without GST tagging in insect cells, respectively; purifying the respective expressed product using glutathione beads; performing SDS-PAGE; and performing the western blotting test using a phosphorylated tyrosine specific antibody and coomassie staining.
The results shown in FIG. 4 have been obtained by co-expressing the full-length c-Src protein together with the fused proteins, GST-DDR2 CKD, GST-DDR1b CKD, GST-Akt1 and GST-CDK4, respectively; in sf9 cells, then performing a western blotting test on each purified GST tagged protein using a phosphorylated tyrosine specific antibody. The presence of a similar amount of each purified GST tagged protein was shown by CBB staining.
GST tagged kinase defective DDR2 cytosolic domain (GST-kd-DDR2-CKD) with intact three tyrosines in the activation loop or with various phenylalanine mutations described in the text were co-expressed with Src in sf9 cells. GST tagged proteins were purified and the same amount of proteins estimated by CBB staining was used for western blotting using P-tyro antibody.
(§1) Phospho-tyrosine specific antibody was purchased from Cell Signaling Inc, USA. Specific antibodies to human c-Src, human c-Fyn, and she were obtained from SantaCruz, USA. Samples were boiled for 2 min in 1× lameli sample buffer, and loaded in 10% SDS-PAGE. Proteins were transferred to Immobilon-P membrane (Millipore) and blacked by 10% skim milk in TBS for an hour. The membrane was immunoblotted with antibodies for 2 hours and subsequently washed with 1×TBS five times. Then it was incubated with HRP conjugated secondary antibodies for an hour and protein bands were detected using chemiluminescence kit (Amersham).

c-Fyn tyrosine kinase = target: T2, c-Fyn tyrosine kinase (Homo sapiens, UniProt P06241); assay: tyrosine phosphorylation on co-expression with c-Fyn in insect cells, western blotting with phosphorylated tyrosine specific antibody; type: cell-based; conditions: FIG. 2
T2 construct: Full length human c-Fyn gene was per amplified from the vector containing full length human c-Fyn purchased from Invitrogen, USA; host or cells: sf9 insect cells co-infected with two recombinant baculoviruses
T2 sequence (P06241 2-482 isoform P06241-3): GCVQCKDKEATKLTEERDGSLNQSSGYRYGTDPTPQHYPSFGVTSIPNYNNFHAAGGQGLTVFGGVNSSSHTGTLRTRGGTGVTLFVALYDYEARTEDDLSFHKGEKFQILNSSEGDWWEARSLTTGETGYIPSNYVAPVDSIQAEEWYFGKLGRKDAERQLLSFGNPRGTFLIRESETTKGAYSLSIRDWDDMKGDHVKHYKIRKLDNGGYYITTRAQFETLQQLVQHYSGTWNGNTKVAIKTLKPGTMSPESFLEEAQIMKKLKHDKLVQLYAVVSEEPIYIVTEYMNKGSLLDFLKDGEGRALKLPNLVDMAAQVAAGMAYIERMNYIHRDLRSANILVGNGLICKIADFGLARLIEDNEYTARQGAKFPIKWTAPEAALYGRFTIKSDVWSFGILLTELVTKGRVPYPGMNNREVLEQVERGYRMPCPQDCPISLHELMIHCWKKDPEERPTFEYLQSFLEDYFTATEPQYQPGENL
Description: In order to check the expression of c-Src protein in the case of co-expressing the GST-DDR2 CKD and the c-Src (lane 2), a portion of lysate of the host cells is undergone a SDS-PAGE and then a western blotting using a c-Src protein specific antibody. Likewise in order to check the expression of c-Fyn protein in the case of co-expressing the GST-DDR2 CKD and the c-Fyn (lane 3), a portion of lysate of the host cells is undergone a SDS-PAGE and then a western blotting using a c-Fyn protein specific antibody.
The presence of equal amount of protein at each lane was estimated by coomassie brilliant blue (CBB) staining. The co-expression of c-Src or c-Fyn protein was confirmed by western blotting on aliquot of total cell lysate using human c-Src or c-Fyn specific antibody.
as §1

shc protein = assay: in vitro shc binding assay using HSC T6 cell lysate; set-up: species or system human
Description: One of the characteristic features of tyrosine phosphorylated cytosolic domain of receptor tyrosine kinase is to recruit the signaling proteins such as shc protein. This complex formation between the cytosolic domain of receptor tyrosine kinase protein and signaling proteins such as shc is important for the cellular transmission of the activated receptor tyrosine kinase signal. It has been observed in HSC T6 liver stellate cells and fibroblast cells that shc, one of signaling protein containing PTB domain binds to activated DDR2 cytosolic domain. The present inventors examined whether the invented DDR2 cytosolic tyrosine kinase domain protein with induced tyrosine phosphorylation for example, by the method of co-expression with c-Src in sf 9 cells or with the mutation of tyrosine 740 to phenylalanine 740 can be used for in vitro shc binding assay. In FIG. 15, the purified GST-DDR2 cytosolic domain from sf 9 cells with and without Src coinfection were used for in vitro shc binding assay. Each protein was subject to autophosphorylation reaction at 30° C. for 15 min, and a mock-autophosphylation reaction as well where gamma-S-ATP was used instead of ATP in the reaction buffer before they were used for in vitro shc binding assay using HSC T6 cell lysate.
The purified GST-DDR2 CKD proteins without or with tyrosine phosphorylation by Src were subject to in vitro shc binding assay after autophosphorylation reaction or a mock-autophosphorylation reaction as described in materials and methods. The bound proteins on the glutathione bead were eluted by boiling in 1× lameli buffer. The presence of shc in the eluate was measured by western blotting using shc antibody and the accumulation of tyrosine phosphorylation at GST-DDR2 CKD proteins resulted from autophosphorylation was shown by western blotting using P-tyro antibody. The presence of an equal amount of GST-DDR2 CKD proteins in each eluate was confirmed by CBB staining. ‘Bead only’ means that no GST-DDR2 CKD protein was applied on glutathione bead as a control.
The same type of experiment was done as FIG. 15 using purified GST-DDR2 CKD phosphorylated by src and its mutant proteins of Y740F and Y736/740/741F.
As a source of shc protein, total lysate of HSC T6 cells was used. For the preparation of the lysate, 2×10^7 HSC T6 cells were harvested and lysed by sonication in 5 ml of lysis buffer consisting of 20 mM Tris-HCl (pH8.0), 0.1M NaCl, 5 mM DTT, 10 mM NaF, […], 0.02% IGE-PAL (Sigma) and a proteinase inhibitor cocktail pellet (Roche). The supernatant was obtained by centrifugation in 15,000 rpm for 10 min at 4° C. and used for the following shc binding assay. Various GST-DDR2 KD proteins bound to glutathione bead were obtained as described above. […]

sf9 cells = assay: tyrosine phosphorylation by H2O2 processing of expressing insect cells, western blotting with phosphorylated tyrosine specific antibody; type: cell-based, Spodoptera frugoperda; conditions: 200 μM H2O2 for half of an hour; FIG. 2, FIG. 5
Method: The results shown in FIG. 5 were obtained by solely expressing the fused proteins, GST-DDR2 CKD, the GST-DDR1b CKD, the GST-CDK4 and the GST-CDK1, respectively, in insect cells; processing with 200 μM of H2O2 for half of an hour; purifying the respective expressed product using glutathione beads; performing the SDS-PAGE; and performing the western blotting test using an phosphorylated tyrosine specific antibody and coomassie staining.
The results shown in FIG. 5 have been obtained by solely expressing GST-DDR2 CKD, GST-DDR1b CKD, GST-CDK4 and GST-CDK1, respectively in sf9 cells; processing each expressed cells with H2O2 of 200 uM for half of an hour or not; and then purifying the GST tagged protein followed by a western blotting using a phosphorylated tyrosine specific antibody. The presence of a similar amount of each purified GST tagged protein was shown by CBB staining.
The recombinant baculoviruses having the GST-DDR2 CKD coding gene were transfected into sf9 insect cells, by setting MOU to 10 and the cells were cultured for 24 to 72 hours, to express the protein. […], at the concentration of 200 μM was added to the cultured cells. The cells were left for half of an hour, and collected. The collected cells were lysed and the GST-DDR2 CKD was purified from the expressed products, using the glutathione agarose bead column chromatography. The purified protein was subjected to an electrophoresis in 10% polyacrylamaid gel.
After completing the electrophoresis, the protein developed in the gel was transferred to nitrocellulose, and then subjected to a western blotting using a phosphorylated tyrosine specific antibody (Cell signaling Inc, USA), to measure the chemiluminescence signal using x-ray film. For the control, the chemical luminescence of the case without H2O2 processing was measured by the method as mentioned above.

tyrosine phosphorylation induced by co-expression with c-Fyn (c-Fyn tyrosine kinase): remarkably induced
B1: GST-DDR2 CKD: fusion protein of glutathione S transferase and human DDR2 cytosolic tyrosine kinase domain, solely expressed in insect cells (protein)
chain: MTVSLSLPSDSSMFNNNRSSSPSEQGSNSTYDRIFPLRPDYQEPSRLIRKLPEFAPGEEESGCSGVVKPVQPSGPEGVPHYAEADIVNLQGVTGGNTYSVPAVTMDLLSGKDVAVEEFPRKLLTFKEKLGEGQFGEVHLCEVEGMEKFKDKDFALDVSANQPVLVAVKMLRADANKNARNDFLKEIKIMSRLKDPNIIHLLSVCITDDPLCMITEYMENGDLNQFLSRHEPPNSSSSDVRTVSYTNLKFMATQIASGMKYLSSLNFVHRDLATRNCLVGKNYTIKIADFGMSRNLYSGDYYRIQGRAVLPIRWMSWESILLGKFTTASDVWAFGVTLWETFTFCQEQPYSQLSDEQVIENTGEFFRDQGRQTYLPQPAICPDSVYKLMLSCWRRDTKNRPSFQEIHLLLLQQGDE
modifications: left off: a dimerising Fc or GST
notes: fusion protein of glutathione S transferase and human DDR2 cytosolic tyrosine kinase domain, solely expressed in insect cells
tyrosine phosphorylation induced by co-expression with c-Src (c-Src tyrosine kinase): remarkably induced; also recorded: strongly induced
shc binding after in vitro autophosphorylation reaction (shc protein; autophosphorylation at 30° C. for 15 min, FIG. 15, FIG. 16): failure to show an improved shc binding
shc binding before in vitro autophosphorylation (shc protein; mock-autophosphorylation with gamma-S-ATP, FIG. 15): did not attract shc protein binding significantly
tyrosine phosphorylation induced by H2O2 processing (sf9 cells): remarkably induced; also recorded: strongly induced

From patent US20120270234A1, “DDR2 PROTEIN WITH ACTIVATED KINASE ACTIVITY AND PREPARATION METHOD THEREOF” (KOREA INSTITUTE OF SCIENCE AND TECHNOLOGY, priority 2003, published 2012)
